Data: article PMC4337610

What was measured:
[1] = molecular target: Hfq wild-type (Escherichia coli) (UniProt P0A6X3); experiment: X-ray crystallography; details: BLI: 25 mM Tris pH 7.5, 50 mM NaCl, 50 mM KCl, 1 mM MgCl2, 1 mM DTT, 0-500 nM Hfq, temperature not stated; EMSA: 1x structure buffer, 1 ug yeast RNA, 37 C …
[2] = molecular target: Hfq wild-type (Escherichia coli) (UniProt P0A6X3); experiment: competition; details: BLI: 25 mM Tris pH 7.5, 50 mM NaCl, 50 mM KCl, 1 mM MgCl2, 1 mM DTT, 0-500 nM Hfq, temperature not stated; EMSA: 1x structure buffer, 1 ug yeast RNA, 37 C …
[3] = molecular target: Hfq wild-type (Escherichia coli) (UniProt P0A6X3); experiment: EMSA; details: BLI: 25 mM Tris pH 7.5, 50 mM NaCl, 50 mM KCl, 1 mM MgCl2, 1 mM DTT, 0-500 nM Hfq, temperature not stated; EMSA: 1x structure buffer, 1 ug yeast RNA, 37 C …
[4] = molecular target: HfqRim R19A;P21A;Q33A;Q35A;T49A;R66A (UniProt P0A6X3); experiment: BLI; details: BLI: 25 mM Tris pH 7.5, 50 mM NaCl, 50 mM KCl, 1 mM MgCl2, 1 mM DTT, 0-500 nM Hfq, temperature not stated; EMSA: 1x structure buffer, 1 ug yeast RNA, 37 C …
[5] = molecular target: Hfq wild-type (Escherichia coli) (UniProt P0A6X3); experiment: BLI; details: BLI: 25 mM Tris pH 7.5, 50 mM NaCl, 50 mM KCl, 1 mM MgCl2, 1 mM DTT, 0-500 nM Hfq, temperature not stated, EMSA: 1x structure buffer, 1 ug yeast RNA, 37 C …
[6] = molecular target: Hfq66 (UniProt P0A6X3); experiment: BLI; details: BLI: 25 mM Tris pH 7.5, 50 mM NaCl, 50 mM KCl, 1 mM MgCl2, 1 mM DTT, 0-500 nM Hfq, temperature not stated; EMSA: 1x structure buffer, 1 ug yeast RNA, 37 C …
[7] = tested on: Hfq66; experiment: BLI; details: 1 uM RydC; BLI: 25 mM Tris pH 7.5, 50 mM NaCl, 50 mM KCl, 1 mM MgCl2, 1 mM DTT, 0-500 nM Hfq, temperature not stated; EMSA: 1x structure buffer, 1 ug yeast RNA, 37 C …; scale: fold lower affinity than without RydC

GGCUUCCGAUGUAGACCCGUCCUCCUUCGCCUGCGUCACGGGUCCUGGUUAGACGCAGGCGUUUUCUG [RydC (crystal)]
binding [1]: binds

GGUUCCGAUGUAGACCCGUCCUCCUUCGCCUGCGUCACGGGUCCUGGUUAGACGCAGGCGUUUUCU [RydC (EMSA transcript)]
binding [2]: binds | binding [3]: binds

GGUUGUUUAUAUUACGAUAAUUAUUAGGCAUUAACGGGAACCGGAGCGUUCCCGAUUCACCAUGGAUGGCCUUUUCGGCAAGGGCUCCUCCCUUCCUCUGUUCUACGUCGGAUAACUGGCUCACGGAAUUGUCCGUGGG [cfa1]
Kd [4]: binds | Kd [5]: binds | binding [6]: binds

cfa1
binding signal (fold lower affinity than without RydC) ([5]; 1 uM RydC): 5 | binding signal [7]: 100
